Experimental data: article PMC7547085, “Specific and direct modulation of the interaction between adhesion GPCR GPR56/ADGRG1 and tissue transglutaminase 2 using synthetic ligands” (Scientific Reports, 2020)

B1: mouse tissue transglutaminase 2 C-terminal D3D4 domains (mTG2 D3D4) [modified: biotin on the AVI-tag; biotin on the AVI-tag] [mouse] / mouse full-length GPR56 (GPR56 FL), wild type, on HEK293T cells [mouse] (parent complex)
chain 1: TGVAMRIRVGDSMSMGNDFDVFAHIGNDTSETRECRLLLCARTVSYNGVLGPECGTEDINLTLDPYSENSIPLRILYEKYSGCLTESNLIKVRGLLIEPAANSYLLAERDLYLENPEIKIRVLGEPKQNRKLVAEVSLKNPLSDPLYDCIFTVEGAGLTKEQKSVEVSDPVPAGDLVKARVDLFPTDIGLHKLVVNFQCDKLKSVKGYRNVIIGPA
chain 2: GSPREDFRFCGQRNQTQQSTLHYDQSSEPHIFVWNTEETLTIRAPFLAAPDIPRFFPEPRGLYHFCLYWSRHTGRLHLRYGKHDYLLSSQASRLLCFQKQEQSLKQGAPLIATSVSSWQIPQNTSLPGAPSFIFSFHNAPHKVSHNASVDMCDLKKELQQLSRYLQHPQKAAKRPTAAFISQQLQSLESKLTSVSFLGDTLSFEEDRVNATVWKLPPTAGLEDLHIHSQKEEEQSEVQAYSLLLPRAVFQQTRGRRRDDAKRLLVVDFSSQALFQDKNSSQVLGEKVLGIVVQNTKVTNLSDPVVLTFQHQPQPKNVTLQCVFWVEDPASSSTGSWSSAGCETVSRDTQTSCLCNHLTYFAVLMVSSTEVEATHKHYLTLLSYVGCVISALACVFTIAAYLCSRRKSRDYTIKVHMNLLSAVFLLDVSFLLSEPVALTGSEAACRTSAMFLHFSLLACLSWMGLEGYNLYRLVVEVFGTYVPGYLLKLSIVGWGFPVFLVTLVALVDVNNYGPIILAVRRTPERVTYPSMCWIRDSLVSYVTNLGLFSLVFLFNLAMLATMVVQILRLRPHSQNWPHVLTLLGLSLVLGLPWALVFFSFASGTFQLVILYLFSIITSFQGFLIFLWYWSMRFQAQGGPSPLKNNSDSAKLPISSGSTSSSRI

Variants of: B1
Experiment: flow cytometry on cells; 5 nM TG2 D3D4 (tetramerized); GPR56 FL constructs expressed on HEK293T cells; n = 3; parent: 1; read off a plot

ratio to parent | Variant
~4.7 | chain 2 R8E
~0.69 | chain 2 Q12A
~0.27 | chain 2 R79D
~5.3 | chain 2 A112R, chain 2 S114R
